B1: Luk8 (designed binder)
chain: LPAPKNLVVSRVTEDSARLSWKRKPWAPIFDSFLIQYQESEKVGEAIVLTVPGSERSYDLTGLKPGTEYTVSIYGVWDHAGPKYEIESNPLSAIFTT
notes: not shown: C-terminal poly-histidine tag
B2: Luk21 (designed binder)
chain: B1 chain with K22V, R23T, P28E, I29Y
notes: as for B1
B3: Luk12 (designed binder)
chain: LPAPKNLVVSRVTEDSARLSWRAKPWAPKFDSFLIQYQESEKVGEAIVLTVPGSERSYDLTGLKPGTEYTVSIYGVKASEKFIESNPLSAIFTT
notes: also called Luk12 anti-LukD FN3 domain; not shown: C-terminal poly-histidine tag
B4: Luk22 (designed binder)
chain: B3 chain with T70A
notes: also called anti-LukD FN3 domain Luk22; not shown: C-terminal poly-histidine tag
B5: Luk11 (designed binder)
chain: B3 chain with K77S, S79I, E80K, K81P, F82G, I83H, E84T
notes: as for B1
B6: Luk37 (designed binder)
chain: LPAPKNLVVSRVTEDSARLSWTAPDAAFDSFLIQYQESEKVGEAIVLTVPGSERSYDLTGLKPGTEYTVSIYGVVGWPLFIQSNPLSAIFTT
notes: as for B1
B7: Luk31 (designed binder)
chain: LPAPNNLVVSRVTEDSARLSWDWDKYYTNRFDSFLIQYQESEKVGEAIVLTVPGSERSYDLTGLKPGTEYTVSIYGVLVRDYIRAAEWYSNPLSAIFTT
notes: as for B1
B8: Luk27 (designed binder)
chain: LPAPKNLVVSRVTEDSARLSWTAPDAAFDSFPIVYQEWQFYGEAIVLTVPGSERSYDLTGLKPGTEYLVDIYGVKGGSWSYPLSAIFTT
notes: also called anti-LukE FN3 domain Luk27; not shown: C-terminal poly-histidine tag
B9: Luk33 (designed binder)
chain: LPAPKNLVVSRVTEDSARLSWTAPDAAFDSFLIQYQESEKVGEAIVLTVPGSERSYDLTGLKPGTEYTVSIYGVAFIPDEIEFSNPLSAIFTT
notes: as for B1
B10: Luk36 (designed binder)
chain: B9 chain with F76D, I77V, I81Y
notes: as for B1
B11: Luk34 (designed binder)
chain: B9 chain with L61P, A75V, F76V, I77V, D79H, I81F
notes: as for B1
B12: Luk35 (designed binder)
chain: B9 chain with F76H, D79W, I81F, F83W, N85K
notes: as for B1
B13: Luk41 (designed binder)
chain: LPAPKNLVVSRVTEDSARLSWTAPDAAFDSFLIQYQESEKVGEAIVLTVPGSERSYDLTGLKPGTEYTVSIYGVSEVPYSEYWFSNPLSAIFTT
notes: as for B1
B14: Luk42 (designed binder)
chain: B13 chain with S75V, E76W, V77G, P78Y, Y79R, S80L, E81T, Y82T, W83E, F84H
notes: as for B1
B15: Luk30 (designed binder)
chain: LPAPKNLVVSRVTEDSARLSWAFNWNYFAFDSFLIQYQESEKVGEAIVLTVPGSERSYDLTGLKPGTEYTVSIYGVVALNTGNKKSNPLSAIFTT
notes: as for B1
B16: Luk46 (designed binder)
chain: LPAPKNLVVSRVTEDSARLSWTAPDAAFDSFWIHYEESTWAGEAIVLTVPGSERSYDLTGLKPGTEYGVVIVGVKGGLKSHPLSAIFTT
notes: as for B1
B17: Luk58 (designed binder)
chain: LPAPKNLVVSRVTEDSARLSWTAPDAAFDSFDIEYDESAHFGEAIVLTVPGSERSYDLTGLKPGTEYIVFIYGVKGGYASIPLSAIFTT
notes: as for B1
B18: Luk38 (designed binder)
chain: LPAPKNLVVSRVTEDSARLSWTAPDAAFDSFLIQYQESEKVGEAIVLTVPGSERSYDLTGLKPGTEYTVSIYGVELIYHGWLDFVFSNPLSAIFTT
notes: also called anti-LukE FN3 domain Luk38; not shown: C-terminal poly-histidine tag
B19: Luk39 (designed binder)
chain: B18 chain with E75R, L76V, I77F, H79F, G80S, W81V, L82E, D83P, F84T, V85W
notes: as for B1
B20: Luk49 (designed binder)
chain: LPAPKNLVVSRVTEDSARLSWTAPDAAFDSFAIVYAEHWPAGEAIVLTVPGSERSYDLTGLKPGTEYNVTIPGVKGGKYSDPLSAIFTT
notes: as for B1
B21: Luk32 (designed binder)
chain: LPAPKNLVVSRVTEDSARLSWYHENAYLLFDSFLIQYQESEKVGEAIVLTVPGSERSYDLTGLKPGTEYTVSIYGVVYDLTPEKRSSNPLSAIFTT
notes: as for B1
B22: Luk60 (designed binder)
chain: LPAPKNLVVSRVTEDSARLSWTAPDAAFDSFDIQYWEWWPFGEAIVLTVPGSERSYDLTGLKPGTEYGVIILGVKGGFRSTPLSAIFTT
notes: as for B1
B23: Luk54 (designed binder)
chain: B22 chain with A27V, D32R, Q34E, W36S, F41I, I70V, L72A, F78G, R79Y, T81V
notes: as for B1
B24: Luk57 (designed binder)
chain: B22 chain with D29N, D32Y, Q34E, W36F, W39F, F41A, G68A, L72H, F78Q
notes: as for B1
B25: Luk28 (designed binder)
chain: B22 chain with D32A, F41P, F78W, R79Y, T81N
notes: as for B1
B26: Luk50 (designed binder)
chain: B22 chain with D32V, Q34P, W36S, F41V, I70Y, L72V, F78T, R79W, T81A
notes: as for B1
B27: Luk48 (designed binder)
chain: B22 chain with D32H, Q34E, W36G, F41T, I70L, L72V, T81S
notes: as for B1
B28: Luk43 (designed binder)
chain: LPAPKNLVVSRVTEDSARLSWTAPDAAFDSFLIQYQESEKVGEAIVLTVPGSERSYDLTGLKPGTEYTVSIYGVNSFGRPTLNLFSNPLSAIFTT
notes: as for B1
B29: Luk40 (designed binder)
chain: B28 chain with N75S, S76Y, F77A, R79E, T81L, N83W, L84I, F85Y
notes: as for B1
B30: Luk44 (designed binder)
chain: B28 chain with N75E, S76W, F77L, G78Q, R79Y, P80Y, T81G, L82E, N83T
notes: as for B1
B31: Luk45 (designed binder)
chain: B28 chain with N75A, S76W, F77L, G78T, R79N, P80A, T81Y, L82E, N83W, L84E
notes: as for B1
B32: Luk26 (designed binder)
chain: LPAPKNLVVSRVTEDSARLSWTAPDAAFDSFHIEYAEPWVWGEAIVLTVPGSERSYDLTGLKPGTEYVVFIGGVKGGHNSTPLSAIFTT
notes: also called anti-LukE FN3 domain Luk26; not shown: C-terminal poly-histidine tag
B33: Luk56 (designed binder)
chain: LPAPKNLVVSRVTEDSARLSWTAPDAAFDSFYIQYIELEIGEAIVLTVPGSERSYDLTGLKPGTEYGVFISGVKGGWNSYPLSAIFTT
notes: as for B1
B34: Luk29 (designed binder)
chain: LPAPKNLVVSRVTEDSARLSWDEQFVSNFDSFLIQYQESEKVGEAIVLTVPGSERSYDLTGLKPGTEYTVSIYGVFVPWDGFSEINYSNPLSAIFTT
notes: as for B1
B35: Luk47 (designed binder)
chain: LPAPKNLVVSRVTEDSARLSWTAPDAAFDSFGIQYFETTESGEAIVLTVPGSERSYDLTGLKPGTEYVVFISGVKGGPLSWPLSAIFTT
notes: as for B1
B36: Luk53 (designed binder)
chain: B35 chain with G32T, T38A, T39E, E40A, S41N, V68L, S72V, P78H, L79S, W81L
notes: as for B1
B37: Luk59 (designed binder)
chain: B35 chain with G32D, Q34S, F36N, T38F, T39A, E40W, F70Y, S72H, L79T, W81Y
notes: as for B1
B38: Luk52 (designed binder)
chain: B17 chain with D32W, E34Q, D36G, S38A, A39Q, H40E, Y72T, Y78N, A79K, I81Y
notes: as for B1
B39: Luk55 (designed binder)
chain: B17 chain with D32W, E34Q, D36F, H40G, F41E, I68L, Y72V, Y78V, A79P, I81Y
notes: as for B1
B40: Luk51 (designed binder)
chain: B35 chain with G32Q, Q34H, T38S, T39E, E40P, S41G, S72I, P78W, L79S, W81L
notes: as for B1

The values that follow come from patent publication US20150210756A1 (NEW YORK UNIVERSITY, published 2015).

Residue numbers refer to the chain shown, from its start.

One experiment has as its target T1, LukD (S. aureus, UniProt Q2FXB1 27-327).
T1 construct: also called leukotoxin D
T1 sequence: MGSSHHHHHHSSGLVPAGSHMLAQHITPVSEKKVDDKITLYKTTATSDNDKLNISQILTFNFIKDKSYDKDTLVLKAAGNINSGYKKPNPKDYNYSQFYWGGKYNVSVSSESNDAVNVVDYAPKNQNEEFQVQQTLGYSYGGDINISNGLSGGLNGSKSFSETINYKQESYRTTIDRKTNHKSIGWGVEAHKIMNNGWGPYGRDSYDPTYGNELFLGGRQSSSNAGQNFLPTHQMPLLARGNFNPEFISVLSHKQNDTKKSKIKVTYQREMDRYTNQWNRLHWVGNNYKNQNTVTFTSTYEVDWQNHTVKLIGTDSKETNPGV
Kind of experiment: ELISA after cis-display panning. On the technique in general: An ELISA detects its analyte on a solid surface through an enzyme-linked reagent.
Take B1: the binding result is reported as “binds”.
In the case of B2, the binding result is “binds”.
Same read-out and setting: the entry for B3 is “binds”.
Still for that read-out and setting: the entry for B4 is “binds”; for B5 it is “binds”.

The next experiment has as its target T2, LukE (S. aureus, UniProt Q2FXB0 24-306).
T2 construct: also called leukotoxin E
Kind of experiment: ELISA after cis-display panning.
B6: the binding result is “binds”.
Take B7: the binding result is “binds”.
As to B8, the binding result is “binds”.
On to B9, for which the binding result was “binds”.
The same measure, in the same setting: the entry for B10 is “binds”.
Same read-out and setting: the entry for B11 is “binds”; for B12 it is “binds”; for B13 it is “binds”.
Same read-out and setting: next, B14: “binds”; B15: “binds”; B16: “binds”.
As to B17, the binding result was “binds”.
The same measure, in the same setting: the entry for B18 is “binds”.
Still for that read-out and setting: the entry for B19 is “binds”; for B20 it is “binds”.
The same measure, in the same setting: the entry for B21 is “binds”; for B22 it is “binds”; for B23 it is “binds”.
As to B24, the binding result was “binds”.
Still for that read-out and setting: next, B25: “binds”; B26: “binds”; B27: “binds”.
Still for that read-out and setting: the entry for B28 is “binds”; for B29 it is “binds”.
As to B30, the binding result is reported as “binds”.
Take B31: the binding result is listed as “binds”.
Regarding B32, the binding result is given as “binds”.
On the same count and under the same terms, the entry for B33 is “binds”; for B34 it is “binds”; for B35 it is “binds”.
B36: the binding result is on record as “binds”.
Turning to B37, the binding result is “binds”.
Turning to B38, the binding result was “binds”.
The same measure, in the same setting: next, B39: “binds”.
Turning to B40, the binding result is on record as “binds”.
